For test [1], the system named is cell lines which express ICAM-R. Nature of the test: Homotypic aggregation assay, cell line panel. The class given is cell-based, human. Particulars: presence and absence of PMA. The procedure: In order to determine whether ICAM-R is involved in homotypic cell adhesion, aggregation assays were performed with a panel of cell lines which express ICAM-R including T lymphoblastoid cell lines (SupT1, CEM, Molt 4, Hut 78, Jurkat, SKW3), B lymphoblastoid cells lines (Jijoye, Raji), monocytic cell lines (U937, HL60), a myelogenous cell line (KG-1) and the erythroleukemia cell line K562. To determine the function of the ICAM-R molecule, the cells were incubated with various antibodies before aggregation was assayed. Anti-ICAM-R supernatants produced by hybridomas ICR-2.1, ICR-1.1, ICR-4.2, and ICR-3.1 were used as well as antibody preparations known to block aggregation through a β2 integrin pathway: TS1/18 (ATCC HB203) specific for the CD18 molecule, the β-subunit of LFA-1; TS1/22 (ATCC HB202) specific for the CD11a molecule, the α-chain of LFA-1; and LM2/1 (ATCC HB204) specific for the CD11b molecule, the α-subunit of MAC-1. Purified anti-ICAM-1 antibody and hybridoma supernatant directed against the a-chain of the VLA-4 molecule (hybridoma clone 163H, Michael Longenecker, Alberta, Canada) were used as controls.
Aggregation assays were done in duplicate, with and without addition of PMA (50 ng/ml). 3×10^5 cells in RPMI 1640 medium with 10% fetal calf serum were added in a flat-bottomed 96-well microtest plate. […]

The target in another test is T1, ICAM-R on PBL (Homo sapiens, UniProt P32942).
T1 construct: endogenous in cells; host or cells: human peripheral blood leukocytes
T1 sequence (P32942 30-547): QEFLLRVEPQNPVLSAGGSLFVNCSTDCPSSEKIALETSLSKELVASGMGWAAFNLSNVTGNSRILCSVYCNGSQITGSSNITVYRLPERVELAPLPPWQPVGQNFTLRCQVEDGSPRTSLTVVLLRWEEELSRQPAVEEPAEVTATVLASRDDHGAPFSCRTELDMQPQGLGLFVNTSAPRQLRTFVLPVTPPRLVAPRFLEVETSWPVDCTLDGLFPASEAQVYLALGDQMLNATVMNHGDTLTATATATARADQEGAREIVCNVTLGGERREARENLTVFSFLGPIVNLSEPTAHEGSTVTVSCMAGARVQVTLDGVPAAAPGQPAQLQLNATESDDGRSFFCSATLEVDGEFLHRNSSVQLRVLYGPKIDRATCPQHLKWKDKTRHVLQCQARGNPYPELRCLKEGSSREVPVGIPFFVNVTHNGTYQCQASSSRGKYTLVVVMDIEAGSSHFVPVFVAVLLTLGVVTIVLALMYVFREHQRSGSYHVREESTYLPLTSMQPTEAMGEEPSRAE
Description: FACS-based competition assay. The class given is binding. Particulars: 5 μg antibody; equivalent on SKW3. As to the method:
In the assays, human peripheral blood leukocytes (PBL) obtained by Ficoll Hypaque centrifugation of normal peripheral blood were washed twice in ice cold FACS buffer (PBS containing 0.1% sodium azide and 1% bovine serum albumin) and 2×10^5 cells were incubated in triplicate polypropylene tubes with 5 μg of each of the following antibodies ICR-1.1, ICR-4.2, and control isotype IgG (Sigma). All tubes containing the first stage antibodies were then incubated for 30 minutes at 4° C. and washed twice in cold FACS buffer. To each triplicate tube, 5 μg of each of the following second stage antibodies were added: biotinylated-ICR-1.1, biotinylated-ICR-4.2, biotinylated-anti-rat CD4 (negative control). All second stage antibodies were bibtinylated according to standard procedures as described in Example 12 and all tubes were then incubated for an additional 30 minutes at 4° C. before washing twice in FACS buffer. […] Finally, all tubes were washed twice in FACS buffer and analyzed by flow cytometry (FACScan, Becton-Dickinson).
SKW3 cells were labelled with either 1 μg of antibody ICR-1.1 or ICR-4.2, washed in FACS buffer and incubated with 1 μg biotinylated-ICR-1.1 or biotinylated ICR-4.2. All tubes were then washed in FACS buffer, incubated with Strepavidin-phycoerythrin for an additional 30 minutes at 4° C. and analyzed by FACScan.

Another test concerns Resting PBL. Description: CD69 and CD25 upregulation after prepulse. Particulars: 24 hours. Format: cell-based, human. The procedure:
Resting PBL isolated as described in Section I above were prepulsed on ICR-1.1 or negative control antibodies, washed and incubated on immobilizedanti-CD3 for 24 hours. The cells were then collected, labeled with monoclonal antibodies to the lymphocyte activation antigens CD69, CD25 and CD80 and examined by flow cytometry.

For the next test, the system named is PBMC. Nature of the test: PBMC activation markers on immobilized antibody. The class given is cell-based, human. The following applies: immobilized antibody 10 μg/well; no other stimuli. The procedure:
Anti-ICAM-R monoclonal antibodies ICR-1.1 and ICR-4.2 were each tested for the ability to induce PMBC activation in the absence of other inducing stimuli. Monoclonal antibodies ICR-1.1 or ICR-4.2 (or control monoclonal antibodies) were added (10 μg/well in PBS) to individual wells of a 96-well flat bottom tissue culture plate and incubated for 3 hours at 37° C. in a 5% CO2 incubator. The plates were washed 3 times with sterile PBS to remove unbound antibody and freshly isolated PBMC were immediately added to a final concentration of 2×10^5 cells/well in a volume of 200 μl media. The plates were then incubated for either 1 or 3 days at which time the cells cultured in the presence of different antibodies were removed, washed as described above in PBS containing 0.01% sodium azide and 1% BSA (FACS buffer) and stained with either FITC (Becton Dickinson)-conjugated negative control antibodies or a panel of FITC-conjugated anti-CD69, anti-transferrin receptor and anti-IL-2 receptor antibodies. Results were obtained by FACScan analysis. […] However, while increased expression of these lymphocyte activation markers was observed after 1 and 3 days this increased expression was unaccompanied by increased cell size.

B1: ICR-1.1: anti-ICAM-R monoclonal antibody, IgG2a, domain 1, ATCC HB 11053 (antibody, V domains shown)
VH: QVQLQQSGAELAKPGASVKMSCKASGYTFTVYWMHWVKQRPGQGLEWIGYINPNTDYTEYNQRFQDKATLTADKSSSTAYMQLSSLTSEDSAVYYCARWGGNSYGLDYWGQGTSVTVSS
VL: QIVLTQSPALMSASPGEKVTMTCSASSSVSYIYWYQQKPRSSPKPWIYLTSNLASGVPARFSGSGSGASYSLTISIMEAEDAATYYCQQWKSIPLTFGAGTKLELK
Turning to B1, the “stimulation of homotypic cell-cell aggregation” value in test [1] is reported as “stimulated homotypic cell-cell aggregation”. In the test with ICAM-R on PBL, the “blocking of biotinylated-ICR-1.1 binding” value was “did block binding of biotinylated-ICR-1.1” and the “blocking of biotinylated-ICR-4.2 binding” value was “did not block binding of monoclonal antibody ICR-4.2”. The “upregulation of CD69 and CD25 in response to immobilized anti-CD3 after prepulse” value with Resting PBL was “do not exhibit decreased ability to upregulate the activation antigens CD69 and CD25”. For the same molecule, in the test on PBMC, the “PBMC activation marker expression after 1 day” value is “Expression of CD69 and the transferrin receptor but not the IL-2 receptor increased”; the “PBMC activation marker expression after 3 days” value was “increased levels of cell surface expression of both the transferrin receptor and IL-2 receptor but not CD69”.

These data come from patent US20040248211A1, “ICAM-related protein” (priority 1992, published 2004).
